For test [1], the target named is T1, full length chicken N-cadherin with the mutation E89A expressed on K562 cells (chicken, UniProt P10288 165-912, E89A).
T1 construct: whole, on cells; also called cells expressing the E89A mutation; K562 E89A
T1 sequence (looked up): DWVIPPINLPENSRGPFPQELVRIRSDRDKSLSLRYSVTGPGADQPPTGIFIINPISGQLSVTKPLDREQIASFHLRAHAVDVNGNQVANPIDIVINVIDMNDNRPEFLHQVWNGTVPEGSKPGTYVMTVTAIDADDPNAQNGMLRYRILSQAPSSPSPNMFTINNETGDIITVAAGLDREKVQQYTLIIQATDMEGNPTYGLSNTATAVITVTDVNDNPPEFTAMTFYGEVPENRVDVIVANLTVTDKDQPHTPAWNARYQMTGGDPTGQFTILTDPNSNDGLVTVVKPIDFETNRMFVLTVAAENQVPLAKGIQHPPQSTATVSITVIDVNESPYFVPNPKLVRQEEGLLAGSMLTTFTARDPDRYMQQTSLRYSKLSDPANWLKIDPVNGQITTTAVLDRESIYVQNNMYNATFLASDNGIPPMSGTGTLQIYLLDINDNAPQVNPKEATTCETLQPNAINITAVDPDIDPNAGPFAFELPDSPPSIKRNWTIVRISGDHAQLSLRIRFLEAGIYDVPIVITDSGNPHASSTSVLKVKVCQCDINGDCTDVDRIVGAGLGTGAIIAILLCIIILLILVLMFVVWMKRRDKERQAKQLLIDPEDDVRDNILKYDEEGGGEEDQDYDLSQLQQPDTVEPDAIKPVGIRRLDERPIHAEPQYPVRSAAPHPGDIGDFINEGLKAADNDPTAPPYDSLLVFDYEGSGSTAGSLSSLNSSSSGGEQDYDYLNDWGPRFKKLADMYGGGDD
Kind of test: adhesion of K562 transfectants to coated N-cadherin Fc. As to the method: (§1) Adhesion tests were conducted substantially as described in Example 1. Briefly, K562 Cells or L cells transfected with wild type or mutant N-cadherin were allowed to settle for 45 minutes at 37° C. onto N-cadherin Fc fusion proteins coated at 1 μg/ml to a 96 well plate. Non-adherent cells were then washed off and residual adherent cells were quantitated by measuring acid phosphatase activity. Assays were conducted in quadruplicate and results are expressed as % cells adhering +/−SEM.

The target of test [2] is T2, wild type full length chicken N-cadherin expressed on stably transfected K562 cells (chicken, UniProt P10288 165-912).
T2 construct: whole, on cells; also called K562 transfectants (Wt); wild type cells
T2 sequence (looked up): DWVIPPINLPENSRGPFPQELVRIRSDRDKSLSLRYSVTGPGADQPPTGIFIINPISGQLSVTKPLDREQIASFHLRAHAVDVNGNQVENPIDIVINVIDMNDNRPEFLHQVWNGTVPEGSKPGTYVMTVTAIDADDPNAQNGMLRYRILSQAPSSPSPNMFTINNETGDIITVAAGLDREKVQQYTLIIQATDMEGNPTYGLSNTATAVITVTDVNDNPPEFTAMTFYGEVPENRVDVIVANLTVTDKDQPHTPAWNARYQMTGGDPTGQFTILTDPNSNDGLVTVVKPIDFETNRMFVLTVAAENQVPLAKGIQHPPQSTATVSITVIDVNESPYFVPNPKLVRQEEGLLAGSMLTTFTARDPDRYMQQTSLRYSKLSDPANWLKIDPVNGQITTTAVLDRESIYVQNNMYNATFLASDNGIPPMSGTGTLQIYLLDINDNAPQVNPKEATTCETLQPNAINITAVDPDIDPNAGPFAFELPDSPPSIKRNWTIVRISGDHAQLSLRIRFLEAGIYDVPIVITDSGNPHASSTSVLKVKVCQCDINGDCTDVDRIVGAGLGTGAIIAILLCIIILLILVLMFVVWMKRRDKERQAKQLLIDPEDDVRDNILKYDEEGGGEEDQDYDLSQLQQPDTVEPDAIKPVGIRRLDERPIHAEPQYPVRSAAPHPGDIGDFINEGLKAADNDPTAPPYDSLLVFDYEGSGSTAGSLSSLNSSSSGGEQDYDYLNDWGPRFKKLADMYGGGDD
The test is described as above. The procedure: as §1

In test [3] the target is T3, human N-cadherin naturally expressed on DX3 melanoma cells (human, UniProt P19022 160-906).
T3 construct: also called DX3 Cells; N-cadherin+ve DX3 melanoma cells
T3 sequence: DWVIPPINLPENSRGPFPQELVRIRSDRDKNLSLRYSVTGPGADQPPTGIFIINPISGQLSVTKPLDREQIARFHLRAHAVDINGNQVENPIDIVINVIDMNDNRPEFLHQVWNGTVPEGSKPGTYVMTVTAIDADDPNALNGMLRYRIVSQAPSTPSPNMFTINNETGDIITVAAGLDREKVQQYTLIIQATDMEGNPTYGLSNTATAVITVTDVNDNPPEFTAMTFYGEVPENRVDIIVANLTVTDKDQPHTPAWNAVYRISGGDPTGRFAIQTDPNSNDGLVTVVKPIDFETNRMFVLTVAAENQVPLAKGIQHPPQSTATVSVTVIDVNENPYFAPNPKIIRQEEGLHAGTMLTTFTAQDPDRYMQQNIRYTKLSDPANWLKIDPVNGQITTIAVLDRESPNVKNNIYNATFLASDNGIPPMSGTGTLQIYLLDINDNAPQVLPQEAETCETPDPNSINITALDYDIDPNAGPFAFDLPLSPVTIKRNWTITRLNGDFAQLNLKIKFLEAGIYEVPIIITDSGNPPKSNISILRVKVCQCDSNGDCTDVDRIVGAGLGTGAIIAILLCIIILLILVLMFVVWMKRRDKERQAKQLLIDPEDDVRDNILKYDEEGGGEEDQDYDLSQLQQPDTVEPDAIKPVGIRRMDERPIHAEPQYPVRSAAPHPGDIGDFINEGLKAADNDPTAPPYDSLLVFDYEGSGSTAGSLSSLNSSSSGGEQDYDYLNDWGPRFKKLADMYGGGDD
The test is described as follows: adhesion of DX3 cells to coated N-cadherin-Fc. The procedure:
Monomeric or dimeric N-cadherin-Fc fusion protein in Cos cell supernatants was added as described for the ELISA assay. DX3 Cells, a human melanoma cell line which expresses N-cadherin, were dissociated with Cell Dissociation Solution (Sigma, code C5789), resuspended in HBSS with 2% FCS and assessed for adhesion to wild type or mutant N-cadherin-Fc as previously described (Corps et al., 2001). Microscopic examination established that the cells were present as a single cell suspension as they settled onto the plate. For assays conducted in reducing conditions, 10 mM DTT was present during the adhesion and washing steps. Determinations were conducted in triplicate and results are presented as mean +/−sem.

B1: chicken N-cadherin-Fc fusion protein with the mutation D134A, dimeric (Fc fusion, UniProt P10288 165-728, looked up)
chain: DWVIPPINLPENSRGPFPQELVRIRSDRDKSLSLRYSVTGPGADQPPTGIFIINPISGQLSVTKPLDREQIASFHLRAHAVDVNGNQVENPIDIVINVIDMNDNRPEFLHQVWNGTVPEGSKPGTYVMTVTAIAADDPNAQNGMLRYRILSQAPSSPSPNMFTINNETGDIITVAAGLDREKVQQYTLIIQATDMEGNPTYGLSNTATAVITVTDVNDNPPEFTAMTFYGEVPENRVDVIVANLTVTDKDQPHTPAWNARYQMTGGDPTGQFTILTDPNSNDGLVTVVKPIDFETNRMFVLTVAAENQVPLAKGIQHPPQSTATVSITVIDVNESPYFVPNPKLVRQEEGLLAGSMLTTFTARDPDRYMQQTSLRYSKLSDPANWLKIDPVNGQITTTAVLDRESIYVQNNMYNATFLASDNGIPPMSGTGTLQIYLLDINDNAPQVNPKEATTCETLQPNAINITAVDPDIDPNAGPFAFELPDSPPSIKRNWTIVRISGDHAQLSLRIRFLEAGIYDVPIVITDSGNPHASSTSVLKVKVCQCDINGDCTDVDRIVGAGLGT
notes: extracellular domain; also called D134A mutant; N-cadherin Fc mutant D134A; not shown: hinge region, CH2 and CH3 domains of human IgG1 heavy chain (vector pIgSig)
With B1, the binding result in test [1] and in test [2] was “no binding (tested: Fc fusion protein coated at 1 µg/ml)” each time.

B2: wild type chicken N-cadherin-Fc fusion protein, dimeric (linked by disulphide bonds at the Ig hinge region) (Fc fusion, UniProt P10288 165-729, looked up)
chain: DWVIPPINLPENSRGPFPQELVRIRSDRDKSLSLRYSVTGPGADQPPTGIFIINPISGQLSVTKPLDREQIASFHLRAHAVDVNGNQVENPIDIVINVIDMNDNRPEFLHQVWNGTVPEGSKPGTYVMTVTAIDADDPNAQNGMLRYRILSQAPSSPSPNMFTINNETGDIITVAAGLDREKVQQYTLIIQATDMEGNPTYGLSNTATAVITVTDVNDNPPEFTAMTFYGEVPENRVDVIVANLTVTDKDQPHTPAWNARYQMTGGDPTGQFTILTDPNSNDGLVTVVKPIDFETNRMFVLTVAAENQVPLAKGIQHPPQSTATVSITVIDVNESPYFVPNPKLVRQEEGLLAGSMLTTFTARDPDRYMQQTSLRYSKLSDPANWLKIDPVNGQITTTAVLDRESIYVQNNMYNATFLASDNGIPPMSGTGTLQIYLLDINDNAPQVNPKEATTCETLQPNAINITAVDPDIDPNAGPFAFELPDSPPSIKRNWTIVRISGDHAQLSLRIRFLEAGIYDVPIVITDSGNPHASSTSVLKVKVCQCDINGDCTDVDRIVGAGLGTG
notes: extracellular domain; also called dimeric N-cadherin-Fc; wild type N-cadherin; not shown: hinge region, CH2 and CH3 domains of human IgG1 heavy chain (vector pIgSig)
With B2, the binding result in test [3] is listed as “binds”.

The values are drawn from patent publication US20080274950A1 (BABRAHAM INSTITUTE, published 2008).
